Test results published in patent US20190352387A1 (Chugai, published 2019).

T1: Recombinant mouse sclerostin (mouse, UniProt Q99P68 24-211)
T1 sequence: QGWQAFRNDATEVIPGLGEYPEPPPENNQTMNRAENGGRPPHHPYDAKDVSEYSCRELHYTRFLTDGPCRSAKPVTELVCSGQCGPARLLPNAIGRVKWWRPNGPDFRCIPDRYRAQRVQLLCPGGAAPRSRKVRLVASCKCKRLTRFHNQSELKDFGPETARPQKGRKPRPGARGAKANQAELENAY


Legend:
[1] = target: T1, Recombinant mouse sclerostin; experiment: cell-based or functional assay
[2] = target: T1, Recombinant mouse sclerostin; experiment: cell-based or functional assay; remark: listed apart in the source
[3] = target: T1, Recombinant mouse sclerostin; experiment: SPR (Biacore T200), 37 C, dissociation at pH 5.8 of complex formed at pH 7.4
Protocol: The affinity of anti-sclerostin variants binding to human, cynomolgus monkey (cyno), rat, or mouse sclerostin at pH 7.4 and pH 5.8 were determined at 37 degrees C. using Biacore T200 instrument (GE Healthcare). Anti-human Fc (GE Healthcare) was immobilized onto all flow cells of a CM4 sensor chip using amine coupling kit (GE Healthcare). All antibodies and analytes were prepared in ACES pH7.4 or pH 5.8 buffer containing 20 mM ACES, 150 mM NaCl, 1.2 mM CaCl₂, 0.05% Tween 20, 0.005% NaN₃. Each antibody was captured onto the sensor surface by anti-human Fc. […] Sensor surface was regenerated each cycle with 3M MgCl₂.
The pH dependent interaction assessment was determined by a modified Biacore assay. Briefly, an additional dissociation phase at pH5.8 was integrated into the Biacore assay immediately after dissociation phase at pH7.4. This is to assess the pH-dependent dissociation between antibody and antigen from the complexes formed at pH7.4. The dissociation rate at pH5.8 buffer was determined by processing and fitting data using Scrubber 2.0 (BioLogic Software) curve fitting software.

Binder | IC50 (read off the curve); Wnt1-induced TCF/LEF luciferase reporter in HEK293T cells, % Inhibition of mouse SOST [1] [mg/L] | MFI of pHrodo-Red-labelled mouse sclerostin taken up into MDCK cells expressing human Fc gamma receptor IIB and human FcRn (flow cytometry) [2] [MFI] | koff [3] [s⁻¹]
mabB//mabA_pH3-BS01 (bispecific antibody, human IgG1, kappa) heavy 1: QVQLVQSGAEVKKPGASVKVSCKVSGFPIKHHFQHWVRQAPGKGLEWMGWSDPEIGDTEYASKFQGRVTMTEDTSTDTAYMELSSLRSEDTAVYYCATGHTTYKFDFWGQGTTVTVSSASTKGPSVFPLAPSSRSTSESTAALGCLVKDYFPEPVTVSWNSGALTSGVHTFPAVLQSSGLYSLSSVVTVPSSSLGTKTYTCNVDHKPSNTKVDKRVEPKSCDKTHTCPPCPAPELLGGPSVFLFPPKPKDTLMISRTPEVTCVVVDVSQEDPEVQFNWYVDGVEVHNAKTKPREEQFNSTYRVVSVLTVLHQDWLNGKEYKCKVSNKGLPSSIEKTISKAKGQPREPQVYTLPPSREEMTKNQVSLTCLVKGFYPSDIAVEWESNGQPENNYKTTPPYLDSDGSFFLYSKLTVDKSRWQQGNVFSCSVMHEALHNHYTQESLSLSP light 1: DIQMTQSPSSLSASVGDRVTITCKASQDVHTAVAWYQQKPGKAPKLLIYWASTRWTGVPSRFSGSGSGTDFTLTISSLQPEDFATYYCQQYSDYHWTFGGGTKVEIKRTVAAPSVFIFPPSDEQLKSGTASVVCLLNNFYPREAKVQWKVDNALQSGNSQESVTEQDSKDSTYSLSSTLTLSKADYEKHKVYACEVTHQGLSSPVTKSFNRGEC heavy 2: EVQLVQSGAEVKKPGASVKVSCKASGYTFTDYNMHWVRQAPGQGLEWMGEINPHSGHAGYNQKFKGRVTMTTDTSTSTAYMELRSLRSDDTAVYYCARLHYDDIHDDWYFDVWGQGTTVTVSSASTKGPSVFPLAPSSRSTSESTAALGCLVKDYFPEPVTVSWNSGALTSGVHTFPAVLQSSGLYSLSSVVTVPSSSLGTKTYTCNVDHKPSNTKVDKRVEPKSCDKTHTCPPCPAPELLGGPSVFLFPPKPKDTLMISRTPEVTCVVVDVSQEDPEVQFNWYVDGVEVHNAKTKPREEQFNSTYRVVSVLTVLHQDWLNGKEYKCKVSNKGLPSSIEKTISKAKGQPREPQVYTLPPSRKEMTKNQVSLTCLVKGFYPSDIAVEWESNGQPENNYKTTPPYLDSDGSFFLYSKLTVDKSRWQQGNVFSCSVMHEALHNHYTQKSLSLSP light 2: not shown | ~10 | 2130 | –
mabA_NpH3-SG2 (antibody, human IgG2, kappa, V domains shown) VH: EVQLVQSGAEVKKPGASVKVSCKASGYTFTDYNMHWVRQAPGQGLEWMGEINPNSGGAGYNQKFKGRVTMTTDTSTSTAYMELRSLRSDDTAVYYCARLGYDDIYDDWYFDVWGQGTTVTVSS VL: DIQMTQSPSSLSASVGDRVTITCRASQDISNYLNWYQQKPGKAPKLLIYYHSRLLSGVPSRFSGSGSGTDFTLTISSLQPEDFATYYCHQGDTLPYTFGGGTKVEIKR | – | 561 | –
mabB//mabA_pH3 (bispecific antibody, V domains shown, Biparatopic) VH 1: QVQLVQSGAEVKKPGASVKVSCKVSGFPIKHHFQHWVRQAPGKGLEWMGWSDPEIGDTEYASKFQGRVTMTEDTSTDTAYMELSSLRSEDTAVYYCATGHTTYKFDFWGQGTTVTVSS VL 1: DIQMTQSPSSLSASVGDRVTITCKASQDVHTAVAWYQQKPGKAPKLLIYWASTRWTGVPSRFSGSGSGTDFTLTISSLQPEDFATYYCQQYSDYHWTFGGGTKVEIK VH 2: EVQLVQSGAEVKKPGASVKVSCKASGYTFTDYNMHWVRQAPGQGLEWMGEINPHSGHAGYNQKFKGRVTMTTDTSTSTAYMELRSLRSDDTAVYYCARLHYDDIHDDWYFDVWGQGTTVTVSS VL 2: DIQMTQSPSSLSASVGDRVTITCRASHDIHNYLNWYQQKPGKAPKLLIYYTSRLLSGVPSRFSGSGSGTDFTLTISSLQPEDFATYYCQQGDTLPYTFGGGTKVEIK | – | – | 0.0516
mabB//mabA_pH1 (bispecific antibody, V domains shown, Biparatopic) VH 1: QVQLVQSGAEVKKPGASVKVSCKVSGFPIKHHFQHWVRQAPGKGLEWMGWSDPEIGDTEYASKFQGRVTMTEDTSTDTAYMELSSLRSEDTAVYYCATGDTTYKFDFWGQGTTVTVSS VL 1: DIQMTQSPSSLSASVGDRVTITCKASQDVHTAVAWYQQKPGKAPKLLIYWASTRWTGVPSRFSGSGSGTDFTLTISSLQPEDFATYYCQQYSDYHWTFGGGTKVEIK VH 2: EVQLVQSGAEVKKPGASVKVSCKASGYTFTDYNMHWVRQAPGQGLEWMGEINPHSGHAGYNQKFKGRVTMTTDTSTSTAYMELRSLRSDDTAVYYCARLHYDDIHDDWYFDVWGQGTTVTVSS VL 2: DIQMTQSPSSLSASVGDRVTITCRASHDIHNYLNWYQQKPGKAPKLLIYYTSRLLSGVPSRFSGSGSGTDFTLTISSLQPEDFATYYCQQGDTLPYTFGGGTKVEIK | – | – | 0.0347
mabB//mabA_pH2 (bispecific antibody, V domains shown, Biparatopic) VH 1: QVQLVQSGAEVKKPGASVKVSCKVSGFPIKHHFQHWVRQAPGKGLEWMGWSDPEIGDTEYASKFQGRVTMTEDTSTDTAYMELSSLRSEDTAVYYCATGHTTYKFDFWGQGTTVTVSS VL 1: DIQMTQSPSSLSASVGDRVTITCKASQDVHTAVAWYQQKPGKAPKLLIYWASTRWTGVPSRFSGSGSGTDFTLTISSLQPEDFATYYCQQYSDYHWTFGGGTKVEIK VH 2: EVQLVQSGAEVKKPGASVKVSCKASGYTFTDYNMHWVRQAPGQGLEWMGEINPHSGHAGYNQKFKGRVTMTTDTSTSTAYMELRSLRSDDTAVYYCARLHYDDIHDDWYFDVWGQGTTVTVSS VL 2: DIQMTQSPSSLSASVGDRVTITCRASHDISNYLNWYQQKPGKAPKLLIYYTSRLLSGVPSRFSGSGSGTDFTLTISSLQPEDFATYYCQQGDTLPYTFGGGTKVEIK | – | – | 0.0186

Further lines, results first:

IC50 (read off the curve); Wnt1-induced TCF/LEF luciferase reporter in HEK293T cells, % Inhibition of mouse SOST [1] [mg/L] | MFI of pHrodo-Red-labelled mouse sclerostin taken up into MDCK cells expressing human Fc gamma receptor IIB and human FcRn (flow cytometry) [2] [MFI] | koff [3] [s⁻¹] | Binder
– | 653 | – | mabB//mabA_NpH3-BS01 (bispecific antibody, human IgG1, kappa) heavy 1: QVQLVQSGAEVKKPGASVKVSCKVSGFPIKHHFQHWVRQAPGKGLEWMGWSDPEIGDTEYASKFQGRVTMTEDTSTDTAYMELSSLRSEDTAVYYCATGDTTYKFDFWGQGTTVTVSSASTKGPSVFPLAPSSRSTSESTAALGCLVKDYFPEPVTVSWNSGALTSGVHTFPAVLQSSGLYSLSSVVTVPSSSLGTKTYTCNVDHKPSNTKVDKRVEPKSCDKTHTCPPCPAPELLGGPSVFLFPPKPKDTLMISRTPEVTCVVVDVSQEDPEVQFNWYVDGVEVHNAKTKPREEQFNSTYRVVSVLTVLHQDWLNGKEYKCKVSNKGLPSSIEKTISKAKGQPREPQVYTLPPSREEMTKNQVSLTCLVKGFYPSDIAVEWESNGQPENNYKTTPPYLDSDGSFFLYSKLTVDKSRWQQGNVFSCSVMHEALHNHYTQESLSLSP light 1: DIQMTQSPSSLSASVGDRVTITCKASQDVHTAVAWYQQKPGKAPKLLIYWASTRWTGVPSRFSGSGSGTDFTLTISSLQPEDFATYYCQQYHDYPWTFGGGTKVEIKRTVAAPSVFIFPPSDEQLKSGTASVVCLLNNFYPREAKVQWKVDNALQSGNSQESVTEQDSKDSTYSLSSTLTLSKADYEKHKVYACEVTHQGLSSPVTKSFNRGEC heavy 2: EVQLVQSGAEVKKPGASVKVSCKASGYTFTDYNMHWVRQAPGQGLEWMGEINPNSGGAGYNQKFKGRVTMTTDTSTSTAYMELRSLRSDDTAVYYCARLGYDDIYDDWYFDVWGQGTTVTVSSASTKGPSVFPLAPSSRSTSESTAALGCLVKDYFPEPVTVSWNSGALTSGVHTFPAVLQSSGLYSLSSVVTVPSSSLGTKTYTCNVDHKPSNTKVDKRVEPKSCDKTHTCPPCPAPELLGGPSVFLFPPKPKDTLMISRTPEVTCVVVDVSQEDPEVQFNWYVDGVEVHNAKTKPREEQFNSTYRVVSVLTVLHQDWLNGKEYKCKVSNKGLPSSIEKTISKAKGQPREPQVYTLPPSRKEMTKNQVSLTCLVKGFYPSDIAVEWESNGQPENNYKTTPPYLDSDGSFFLYSKLTVDKSRWQQGNVFSCSVMHEALHNHYTQKSLSLSP light 2: not shown
– | – | 0.000932 | mabA_pH3 (antibody, V domains shown) VH: EVQLVQSGAEVKKPGASVKVSCKASGYTFTDYNMHWVRQAPGQGLEWMGEINPHSGHAGYNQKFKGRVTMTTDTSTSTAYMELRSLRSDDTAVYYCARLHYDDIHDDWYFDVWGQGTTVTVSS VL: DIQMTQSPSSLSASVGDRVTITCRASHDISNYLNWYQQKPGKAPKLLIYYTSRLLSGVPSRFSGSGSGTDFTLTISSLQPEDFATYYCQQGDTLPYTFGGGTKVEIK
